The supplement of paper PMC10065799, “High-throughput profiling of sequence recognition by tyrosine kinases and SH2 domains using bacterial peptide display” (eLife, 2023)

How the values were obtained:
c-Src SH2 = test: SH2 binding enrichment of the phosphorylated peptide, bacterial display (enrichment ratio); higher = better substrate or ligand; peptides without Tyr show the background
Grb2 SH2 = Grb2 SH2 (UniProt P62993); test: as above
SHP2-C SH2 = test: as above
EPHB1 = EPHB1 (UniProt P54762); test: phosphorylation enrichment, bacterial display (enrichment ratio); higher = better substrate or ligand; peptides without Tyr show the background
Sequence of EPHB1 (P54762 whole entry, looked up): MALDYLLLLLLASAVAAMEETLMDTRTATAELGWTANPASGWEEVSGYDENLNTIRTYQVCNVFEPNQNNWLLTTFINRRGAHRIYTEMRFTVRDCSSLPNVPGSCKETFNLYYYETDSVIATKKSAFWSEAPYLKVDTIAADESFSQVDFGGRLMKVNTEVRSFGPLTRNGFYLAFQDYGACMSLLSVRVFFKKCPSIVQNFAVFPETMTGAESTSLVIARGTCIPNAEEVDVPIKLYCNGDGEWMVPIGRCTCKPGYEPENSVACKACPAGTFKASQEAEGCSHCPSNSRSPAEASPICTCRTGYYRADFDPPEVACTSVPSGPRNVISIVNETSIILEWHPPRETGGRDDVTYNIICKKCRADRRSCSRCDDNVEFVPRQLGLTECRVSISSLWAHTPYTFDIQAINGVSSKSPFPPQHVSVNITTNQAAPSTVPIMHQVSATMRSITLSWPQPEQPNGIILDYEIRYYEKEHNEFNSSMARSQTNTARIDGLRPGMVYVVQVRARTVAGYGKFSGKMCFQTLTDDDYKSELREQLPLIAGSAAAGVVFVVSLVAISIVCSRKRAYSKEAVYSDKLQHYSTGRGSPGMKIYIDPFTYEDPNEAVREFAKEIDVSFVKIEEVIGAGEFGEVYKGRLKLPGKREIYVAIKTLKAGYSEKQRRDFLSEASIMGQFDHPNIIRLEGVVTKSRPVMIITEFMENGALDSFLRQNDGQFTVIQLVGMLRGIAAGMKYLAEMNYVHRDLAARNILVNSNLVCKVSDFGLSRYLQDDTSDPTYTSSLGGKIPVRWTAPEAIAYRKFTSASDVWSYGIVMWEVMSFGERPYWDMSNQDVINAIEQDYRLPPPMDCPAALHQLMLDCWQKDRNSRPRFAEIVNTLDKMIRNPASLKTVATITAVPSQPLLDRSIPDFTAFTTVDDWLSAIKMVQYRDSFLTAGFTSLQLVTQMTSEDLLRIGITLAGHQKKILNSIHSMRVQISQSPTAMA

EPHB2 = EPHB2 (UniProt P29323); test: as above
Sequence of EPHB2 (P29323 whole entry, looked up): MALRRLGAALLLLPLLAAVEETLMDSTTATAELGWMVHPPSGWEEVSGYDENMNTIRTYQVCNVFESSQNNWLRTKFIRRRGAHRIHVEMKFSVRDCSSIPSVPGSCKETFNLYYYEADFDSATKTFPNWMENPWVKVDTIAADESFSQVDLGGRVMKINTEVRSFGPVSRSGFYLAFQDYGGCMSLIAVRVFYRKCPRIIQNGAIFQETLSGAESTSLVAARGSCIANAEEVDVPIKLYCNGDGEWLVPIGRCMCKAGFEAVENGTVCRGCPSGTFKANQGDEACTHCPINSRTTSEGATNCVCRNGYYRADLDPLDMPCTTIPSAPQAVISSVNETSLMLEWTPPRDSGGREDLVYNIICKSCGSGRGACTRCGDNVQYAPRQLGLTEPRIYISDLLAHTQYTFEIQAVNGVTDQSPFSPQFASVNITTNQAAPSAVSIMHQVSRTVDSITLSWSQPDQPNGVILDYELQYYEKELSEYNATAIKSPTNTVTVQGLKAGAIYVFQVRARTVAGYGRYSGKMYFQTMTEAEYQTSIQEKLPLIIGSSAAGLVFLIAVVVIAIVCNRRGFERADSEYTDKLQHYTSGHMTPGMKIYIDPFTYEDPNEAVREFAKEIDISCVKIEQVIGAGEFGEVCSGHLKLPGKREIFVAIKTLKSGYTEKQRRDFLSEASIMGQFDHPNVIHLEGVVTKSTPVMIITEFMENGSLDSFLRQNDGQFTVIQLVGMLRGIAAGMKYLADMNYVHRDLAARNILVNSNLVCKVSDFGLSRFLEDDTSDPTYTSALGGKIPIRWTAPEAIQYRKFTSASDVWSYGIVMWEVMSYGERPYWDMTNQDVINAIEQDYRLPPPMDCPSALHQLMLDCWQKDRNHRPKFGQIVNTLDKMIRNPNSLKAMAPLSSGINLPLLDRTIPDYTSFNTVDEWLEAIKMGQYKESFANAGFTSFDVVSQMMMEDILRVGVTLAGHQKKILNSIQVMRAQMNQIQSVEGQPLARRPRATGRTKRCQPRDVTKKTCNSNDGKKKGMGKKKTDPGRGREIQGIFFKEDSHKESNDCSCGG

Hck = Hck (UniProt P08631); test: as above
Sequence of Hck (P08631 whole entry, looked up): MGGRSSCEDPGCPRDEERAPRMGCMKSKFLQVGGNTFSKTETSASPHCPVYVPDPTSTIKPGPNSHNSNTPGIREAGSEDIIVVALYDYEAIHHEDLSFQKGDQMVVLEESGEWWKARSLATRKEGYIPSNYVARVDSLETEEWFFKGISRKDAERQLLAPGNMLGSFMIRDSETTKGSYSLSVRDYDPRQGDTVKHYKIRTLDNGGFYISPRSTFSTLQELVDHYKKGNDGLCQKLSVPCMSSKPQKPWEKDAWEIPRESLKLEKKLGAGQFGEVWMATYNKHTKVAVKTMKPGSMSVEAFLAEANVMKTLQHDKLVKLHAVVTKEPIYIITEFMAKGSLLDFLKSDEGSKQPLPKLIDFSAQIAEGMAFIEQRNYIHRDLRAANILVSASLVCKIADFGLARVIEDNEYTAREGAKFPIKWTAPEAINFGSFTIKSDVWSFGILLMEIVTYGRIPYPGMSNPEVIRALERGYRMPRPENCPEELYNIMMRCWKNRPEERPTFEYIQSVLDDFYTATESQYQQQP

Fyn = Fyn (UniProt P06241); test: as above
c-Src = test: as above
Fes = Fes (UniProt P07332); test: as above
Sequence of Fes (P07332 whole entry, looked up): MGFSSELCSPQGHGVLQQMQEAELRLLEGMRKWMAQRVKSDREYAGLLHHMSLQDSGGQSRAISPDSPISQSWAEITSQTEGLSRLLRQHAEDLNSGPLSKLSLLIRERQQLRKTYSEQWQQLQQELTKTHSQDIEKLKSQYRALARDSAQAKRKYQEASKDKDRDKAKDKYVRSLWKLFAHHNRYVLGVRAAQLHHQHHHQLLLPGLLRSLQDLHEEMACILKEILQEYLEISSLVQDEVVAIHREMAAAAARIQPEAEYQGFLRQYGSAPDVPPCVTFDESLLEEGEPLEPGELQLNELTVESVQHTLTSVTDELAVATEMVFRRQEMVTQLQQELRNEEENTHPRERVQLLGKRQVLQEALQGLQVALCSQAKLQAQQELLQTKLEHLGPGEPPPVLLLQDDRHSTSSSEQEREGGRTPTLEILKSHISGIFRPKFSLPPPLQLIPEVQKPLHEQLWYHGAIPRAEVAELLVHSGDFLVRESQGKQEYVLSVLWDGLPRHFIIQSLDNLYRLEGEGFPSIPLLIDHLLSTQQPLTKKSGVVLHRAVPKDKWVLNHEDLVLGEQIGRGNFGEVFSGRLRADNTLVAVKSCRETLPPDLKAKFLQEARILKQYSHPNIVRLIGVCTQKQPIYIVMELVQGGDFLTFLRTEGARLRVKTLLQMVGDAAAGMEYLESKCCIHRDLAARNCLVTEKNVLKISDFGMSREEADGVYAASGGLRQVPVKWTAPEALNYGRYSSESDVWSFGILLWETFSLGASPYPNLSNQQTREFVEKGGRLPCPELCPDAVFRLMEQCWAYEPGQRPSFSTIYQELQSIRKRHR

c-Abl (mouse) = test: as above
Jak2 = Jak2 (UniProt O60674); test: as above
FGFR1 = FGFR1 (UniProt P11362); test: as above
Sequence of FGFR1 (P11362 whole entry, looked up): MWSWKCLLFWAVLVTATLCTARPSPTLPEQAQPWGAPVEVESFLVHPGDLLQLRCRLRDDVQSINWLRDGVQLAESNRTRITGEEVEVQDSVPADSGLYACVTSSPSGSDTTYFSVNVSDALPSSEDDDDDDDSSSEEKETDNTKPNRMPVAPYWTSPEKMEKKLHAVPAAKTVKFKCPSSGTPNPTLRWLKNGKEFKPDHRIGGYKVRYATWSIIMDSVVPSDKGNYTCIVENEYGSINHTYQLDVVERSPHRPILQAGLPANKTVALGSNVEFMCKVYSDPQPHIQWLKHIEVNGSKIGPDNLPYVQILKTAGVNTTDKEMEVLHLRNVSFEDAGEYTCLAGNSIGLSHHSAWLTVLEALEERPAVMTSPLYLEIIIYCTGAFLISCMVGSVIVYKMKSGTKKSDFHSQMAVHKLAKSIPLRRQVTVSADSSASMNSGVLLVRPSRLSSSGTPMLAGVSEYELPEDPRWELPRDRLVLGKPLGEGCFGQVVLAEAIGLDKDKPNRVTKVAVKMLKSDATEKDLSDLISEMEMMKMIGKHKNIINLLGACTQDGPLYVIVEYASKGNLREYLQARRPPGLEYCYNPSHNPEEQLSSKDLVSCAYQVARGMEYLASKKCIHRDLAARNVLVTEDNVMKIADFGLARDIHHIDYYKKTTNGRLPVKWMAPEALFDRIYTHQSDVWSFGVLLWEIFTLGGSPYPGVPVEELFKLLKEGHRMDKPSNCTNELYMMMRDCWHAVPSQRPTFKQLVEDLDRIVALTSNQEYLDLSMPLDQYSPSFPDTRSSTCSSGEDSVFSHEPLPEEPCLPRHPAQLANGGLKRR

MERTK = MERTK (UniProt Q12866); test: as above
FGFR3 = FGFR3 (UniProt P22607); test: as above
Sequence of FGFR3 (P22607 whole entry, looked up): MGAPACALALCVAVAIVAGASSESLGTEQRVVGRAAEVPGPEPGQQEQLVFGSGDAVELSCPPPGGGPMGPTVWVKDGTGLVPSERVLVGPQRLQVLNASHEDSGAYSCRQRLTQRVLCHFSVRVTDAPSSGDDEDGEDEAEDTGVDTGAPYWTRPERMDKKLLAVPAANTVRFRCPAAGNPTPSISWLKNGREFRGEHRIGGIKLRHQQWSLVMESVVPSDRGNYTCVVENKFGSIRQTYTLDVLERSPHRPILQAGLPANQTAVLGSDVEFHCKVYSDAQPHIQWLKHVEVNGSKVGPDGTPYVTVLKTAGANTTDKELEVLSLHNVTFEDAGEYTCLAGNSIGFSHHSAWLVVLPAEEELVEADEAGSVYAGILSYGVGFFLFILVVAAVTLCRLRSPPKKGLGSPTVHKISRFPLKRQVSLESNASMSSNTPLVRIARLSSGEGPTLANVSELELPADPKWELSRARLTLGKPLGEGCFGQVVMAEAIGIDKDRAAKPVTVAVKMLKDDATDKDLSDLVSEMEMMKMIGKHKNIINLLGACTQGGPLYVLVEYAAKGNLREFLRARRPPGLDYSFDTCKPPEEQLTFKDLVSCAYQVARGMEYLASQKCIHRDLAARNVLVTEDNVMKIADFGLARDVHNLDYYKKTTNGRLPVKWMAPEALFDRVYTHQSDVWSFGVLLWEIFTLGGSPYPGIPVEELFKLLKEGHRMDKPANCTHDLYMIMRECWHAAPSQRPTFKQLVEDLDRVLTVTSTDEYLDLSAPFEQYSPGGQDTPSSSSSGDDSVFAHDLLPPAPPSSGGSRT

Fer (mouse) = test: as above
AncSZ = test: as above
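For SH2 binding enrichment of the phosphorylated peptide, bacterial display in this document: peptide library displayed on the E. coli surface as eCPX fusions, selected cells deep-sequenced, score is each peptide's frequency after selection divided by its frequency in the input.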
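For phosphorylation enrichment, bacterial display in this document: 11-residue human phosphosite peptides and single-mutation variants displayed on the E. coli surface, counted by deep sequencing, each peptide's frequency after selection divided by its frequency in the unselected input library; frequency after pTyr selection over input frequency; kinase dosed for 20-30% of maximal phosphorylation in three min.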

Sequence	SH2 binding enrichment (c-Src SH2)	SH2 binding enrichment (Grb2 SH2)	SH2 binding enrichment (SHP2-C SH2)	phosphorylation enrichment (EPHB1)	phosphorylation enrichment (EPHB2)	phosphorylation enrichment (Hck)	phosphorylation enrichment (Fyn)	phosphorylation enrichment (c-Src)	phosphorylation enrichment (Fes)	phosphorylation enrichment (c-Abl (mouse))	phosphorylation enrichment (Jak2)	phosphorylation enrichment (FGFR1)	phosphorylation enrichment (MERTK)	phosphorylation enrichment (FGFR3)	phosphorylation enrichment (Fer (mouse))	phosphorylation enrichment (AncSZ)
RVGNMYMRGLS [ABCG8_Y209_V210M]	1.01	1.42	1.7	0.615	0.559	0.615	0.657	0.552	0.966	0.453	0.663	0.704	0.697	0.596	0.469	0.672
ANAFIYDVQLP [L1CAM_Y420_V421D_YF]	0.51	1.01	0.633	1.69	1.3	4.65	6.97	4.96	0.938	0.715	0.849	0.639	7.43	0.627	1.19	1.1
SIKDKYVMALF [KCNH2_Y611_T613M_YF]	0.699	1.06	0.845	0.405	0.491	0.496	0.429	0.393	0.888	0.558	0.721	0.535	0.447	0.574	0.385	0.664
TLMNAYSSCSH [KIF11_Y231_R234C]	1.24	0.808	0.658	0.465	0.566	0.557	0.462	0.45	0.803	0.597	0.642	0.436	0.496	0.566	0.599	0.702
IRTIDYRFTVW [IDS_Y497_YF]	0.528	0.923	0.868	0.629	0.614	0.489	0.423	0.39	1.2	0.735	1.09	0.41	0.402	0.741	0.557	1.11
GFCSWYRGWAP [TIMP3_Y195_YF]	0.609	0.953	0.968	0.763	0.597	0.497	0.472	0.773	1.27	0.912	1.2	0.514	0.498	0.813	0.593	1.27
LYEDRYLLGTS [ASS1_Y87]	0.546	0.82	1.05	3.01	1.23	3.73	1.79	0.837	0.981	0.79	0.894	0.702	0.786	0.95	4.27	0.982
GDSVQYNRTTD [MLPH_Y454_P451S]	0.481	0.718	0.704	0.486	0.38	0.498	0.469	0.422	0.999	0.548	0.728	0.487	0.419	0.498	0.457	0.612
RTVPLYESLRK [DDB1_Y718_P721L]	0.78	1.04	1.07	23	26.1	12.4	11.7	8.53	1.15	1.07	0.547	0.466	8.17	0.437	11.3	0.668
VEDQYYRVDCY [FHL1_Y208_C209R]	0.897	0.891	0.677	0.711	0.712	0.993	0.892	1.55	1.46	0.958	1.98	7.43	0.94	6.22	0.598	2.93
TLQRMYGCDVG [HLA-B_Y123_S121R]	0.493	0.851	0.454	0.535	0.665	0.501	0.568	0.554	1.14	0.816	1	0.5	0.545	0.771	0.542	0.857
TPRNTYKMTSL [MKI67_Y849]	0.805	1.36	0.891	0.323	0.545	0.395	0.475	0.459	0.512	0.496	0.477	0.386	0.428	0.445	0.443	0.477
ASFGPNTRVQS [FOXL2_Y258_Y258N_YF]	0.542	0.8	0.267	0.445	0.399	0.433	0.466	0.394	0.619	0.525	0.565	0.479	0.365	0.442	0.447	0.567
WFPANYVKLLN [ITSN1_Y1132_S1137N]	0.646	0.919	2.22	3.81	1.21	0.536	0.53	0.532	1.14	0.759	1.45	0.599	0.587	0.76	0.511	1.06
SCRENYSFSEE [LEMD3_Y258_D260Y_YF]	0.807	1.05	0.716	0.709	0.725	0.509	0.501	0.588	1.08	0.791	0.988	0.452	0.38	0.75	0.53	1.1
EVRAQYEEIAQ [KRT76_Y361]	22.5	0.666	0.623	0.697	0.641	0.614	0.526	0.388	1.22	0.92	1.07	0.611	0.404	0.98	0.977	1.19
LGRTVYADCLA [ABCA4_Y2063_L2060R]	1.71	1.15	3.39	1.26	1.61	0.989	0.902	0.903	2.65	1.39	1.76	0.918	0.939	1.37	1.4	0.983

Sequence	SH2 binding enrichment (c-Src SH2)	SH2 binding enrichment (Grb2 SH2)	SH2 binding enrichment (SHP2-C SH2)	phosphorylation enrichment (EPHB1)	phosphorylation enrichment (EPHB2)	phosphorylation enrichment (Hck)	phosphorylation enrichment (Fyn)	phosphorylation enrichment (c-Src)	phosphorylation enrichment (Fes)	phosphorylation enrichment (c-Abl (mouse))	phosphorylation enrichment (Jak2)	phosphorylation enrichment (FGFR1)	phosphorylation enrichment (MERTK)	phosphorylation enrichment (FGFR3)	phosphorylation enrichment (Fer (mouse))	phosphorylation enrichment (AncSZ)
RRIHSYRCHLW [VHL_Y112_G114C]	0.651	0.707	0.61	0.564	0.477	0.629	0.767	0.748	1.25	0.822	0.762	0.642	0.786	0.641	0.68	0.967
PVQAAYQKVVA [HBB_Y131]	0.706	0.795	0.516	0.694	0.536	0.505	0.418	0.471	0.438	0.716	0.37	0.645	0.716	0.591	0.557	0.41
CEHRGFLFLAI [TEK_Y897_Y897F_YF]	0.759	1.47	0.996	0.392	0.513	0.434	0.403	0.506	1.16	0.907	1.06	0.484	0.442	0.651	0.515	0.949
HHIDFYKKTTN [FGFR1_Y654_YF]	0.325	1.05	0.61	0.503	0.418	0.378	0.435	0.489	1.19	0.491	0.53	0.629	0.408	0.457	0.604	0.855
NEKNIYRVPLM [BMPR2_Y247]	0.508	0.864	0.755	0.377	0.357	1.16	1.96	0.877	0.708	31.2	0.671	0.446	0.609	0.501	0.439	0.622
PLSGEYFTLQI [TP53_Y327_D324S]	0.432	0.793	0.679	1.82	1.2	1.89	4.49	3.48	1.62	2.51	6.87	13.7	0.763	9.65	0.722	3.93
GLALRCLSDHS [VWF_Y1584_Y1584C]	0.41	0.815	0.654	0.592	0.559	0.59	0.515	0.503	1.16	0.718	0.961	0.551	0.422	0.711	0.518	0.86
ENGPFYASFPP [GDAP2_Y488_T489A_YF]	0.744	0.852	0.523	9.38	10.4	8.77	9.94	7.57	0.858	14.9	0.951	3.05	11.5	2.07	7.77	0.819
PVLSLYASGRT [ACTA1_Y145_A140P]	0.484	0.841	0.926	0.637	0.548	0.768	0.616	0.573	1.19	1.31	1.39	0.328	0.752	0.703	0.539	1.14
AHAGGYGAEAL [HBA1_Y25_E24G]	0.433	0.905	0.546	0.436	0.482	0.454	0.433	0.385	0.665	0.599	0.559	0.421	0.438	0.489	0.398	0.63
PKEEPYKMQEK [SLC5A3_Y565_Q566K]	0.541	0.766	0.624	0.544	0.403	0.415	0.386	0.607	1.21	0.969	0.892	0.565	0.467	0.587	0.612	0.885
VVKTVYSLQPS [KNSTRN_Y87_P92S]	0.482	0.651	0.981	0.671	0.455	0.688	1.73	2.05	0.848	0.716	0.715	0.52	1.42	0.561	0.485	0.648
EQKKNYNAMKK [SCN5A_Y1495_Y1494N]	0.597	0.895	0.973	0.427	0.561	0.489	0.394	0.524	1.07	1.1	1.01	0.643	0.44	0.826	0.538	0.847
VLTSKHRGGGG [HBA1_Y141_Y141H]	0.823	1.02	0.751	0.318	0.225	0.322	0.527	0.344	0.396	0.418	0.332	0.464	0.677	0.419	0.222	0.486
LIDGFYRLTED [JAK2_Y373_A377E_YF]	0.661	0.699	0.678	0.586	0.89	0.552	0.66	0.895	1.54	0.974	1.11	0.537	0.549	0.747	0.613	1.31
RPGSGYTKIMR [PKLR_Y564_N566K]	2.98	0.999	1.69	0.415	0.303	0.409	0.404	0.348	0.525	0.396	0.41	0.372	0.48	0.368	0.42	0.546
